Assay results reported in patent publication US20230002481A1 (Chugai, published 2023).

Molecular target: T1, recombinant cyno C1r2s2 His/Flag tetramer (cynomolgus monkey, limits assumed)
T1 construct: Heterotetramer of two C1r-His and two C1s-Flag chains, co-expressed in FreeStyle293-F cells; also called cyno C1r2s2s
T1 chain 1: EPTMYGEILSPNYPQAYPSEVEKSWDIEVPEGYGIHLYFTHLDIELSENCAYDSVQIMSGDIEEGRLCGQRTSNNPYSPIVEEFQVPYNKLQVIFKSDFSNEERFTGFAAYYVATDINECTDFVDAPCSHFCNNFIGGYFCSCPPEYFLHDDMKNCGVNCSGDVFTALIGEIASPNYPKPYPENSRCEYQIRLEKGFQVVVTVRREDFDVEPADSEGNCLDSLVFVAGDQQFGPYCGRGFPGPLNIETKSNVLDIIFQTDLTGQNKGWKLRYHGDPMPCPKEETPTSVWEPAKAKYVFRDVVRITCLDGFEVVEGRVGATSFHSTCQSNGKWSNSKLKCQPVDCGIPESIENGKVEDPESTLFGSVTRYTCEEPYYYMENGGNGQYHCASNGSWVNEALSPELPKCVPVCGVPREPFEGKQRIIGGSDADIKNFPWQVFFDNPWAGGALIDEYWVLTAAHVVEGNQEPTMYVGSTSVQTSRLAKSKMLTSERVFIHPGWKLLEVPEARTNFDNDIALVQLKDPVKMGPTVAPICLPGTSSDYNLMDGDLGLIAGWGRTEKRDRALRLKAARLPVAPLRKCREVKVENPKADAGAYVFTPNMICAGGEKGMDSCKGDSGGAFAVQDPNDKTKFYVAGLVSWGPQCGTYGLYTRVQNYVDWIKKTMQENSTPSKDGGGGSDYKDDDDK
T1 chain 2: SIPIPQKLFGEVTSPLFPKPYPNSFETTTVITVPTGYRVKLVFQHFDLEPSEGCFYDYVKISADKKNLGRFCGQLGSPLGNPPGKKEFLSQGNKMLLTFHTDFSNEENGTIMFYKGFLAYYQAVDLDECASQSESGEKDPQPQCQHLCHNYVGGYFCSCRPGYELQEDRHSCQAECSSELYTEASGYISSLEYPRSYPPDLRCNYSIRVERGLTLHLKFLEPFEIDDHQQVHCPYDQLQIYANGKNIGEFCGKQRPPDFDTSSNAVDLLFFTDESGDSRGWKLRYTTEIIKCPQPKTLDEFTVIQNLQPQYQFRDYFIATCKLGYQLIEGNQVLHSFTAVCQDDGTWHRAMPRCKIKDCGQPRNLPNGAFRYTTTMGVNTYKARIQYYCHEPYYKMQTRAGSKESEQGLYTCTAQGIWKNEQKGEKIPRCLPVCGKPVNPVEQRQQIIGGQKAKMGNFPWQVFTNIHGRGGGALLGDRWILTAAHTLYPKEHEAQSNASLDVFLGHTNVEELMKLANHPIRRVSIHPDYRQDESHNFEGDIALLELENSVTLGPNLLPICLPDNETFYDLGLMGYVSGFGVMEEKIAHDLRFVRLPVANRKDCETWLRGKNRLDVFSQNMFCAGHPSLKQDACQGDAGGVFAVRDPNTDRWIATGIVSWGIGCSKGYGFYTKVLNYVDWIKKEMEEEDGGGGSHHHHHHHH
Test: SPR (Biacore), antibody captured on ProA/G, antigen as analyte, 37 C, pH7.4, 1.2 mM CaCl2
Procedure: The kinetic parameters of anti-C1s antibodies against recombinant human C1s (as described in PCT/JP2018/042054), human C1r2s2, and cyno C1r2s2 His/Flag (also referred as cyno C1r2s2 in the Table and Figures) were assessed at pH7.4 and pH5.8, at 37 degrees C. using BIACORE (registered trademark) T200 instrument (GE Healthcare) or BIACORE 4000 (GE Healthcare). ProAG (Pierce) was immobilized onto a CM4 sensorchip using amine coupling kit (GE Healthcare) according to the recommended settings by GE Healthcare. Antibodies and analytes were diluted into the respective running buffers, ACES pH7.4 and pH5.8 (20 mM ACES, 150 mM NaCl, 1.2 mM CaCl₂, 1 mg/ml BSA, 1 mg/ml CMD, 0.05% Tween 20, 0.005 w/v % NaN₃). Each antibody was captured onto the sensor surface by ProA/G. Antibody capture levels were typically 100-200 resonance units (RU). Then, recombinant C1s was injected at concentrations of 25 and 50 nM followed by dissociation at pH7.4 and pH5.8. The surface was regenerated using 10 mM Glycine-HCl, pH1.5. Kinetic parameters at neutral pH conditions and acidic conditions were determined by fitting the sensorgrams with 1:1 binding model using BIACORE (registered trademark) T200 Evaluation software, version 2.0 (GE Healthcare) or BIACORE 4000 Evaluation software. The dissociation rate at pH5.8 (after dissociation at pH7.4, indicated as pH5.8* in TABLE 2) was determined by processing and fitting data using Scrubber 2.0 (BioLogic Software) curve fitting software. The association rate (ka), dissociation rate (kd), binding affinity (KD) at pH7.4 and pH5.8 condition, and dissociation rate (kd) at pH5.8* condition of the antibodies are listed in TABLE 2. Some kinetic parameters of COS0098pHv1 in acidic condition were not correctly calculated because of its weak binding response.
Also, to observe the cross-reactivity of anti-C1s antibodies against human C1r2s2 and cyno C1r2s2 (cyno C1r2s2 His/Flag), BIACORE (registered trademark) kinetics analysis was performed.

- Kd: 2.87 nM
- koff: 0.00125 s⁻¹
- kon: 435000 M⁻¹ s⁻¹
B1: COS0098pHv1 (antibody, V domains shown)
VH: QVQLVQSGAEVKKPGSSVKVSCKASGHTFSKYTVSWIRQPPGKGLEWIGIINTGGSAYPATWAKGRVTITADESTSTAYMELSSLRSEDTAVYYCARGAGDTDYTNLWGQGTLVTVSS
VL: DIQMTQSPSSLSASVGDRVTITCQASENIYSALAWYQQKPGQPPKLLIYGASQLESGVPSRFSGSGSGTDFTLTISSLQPEDFATYYCQQYYFTSHTFGQGTKVEIK
notes: Humanized, optimized pH-dependent variant of COS0098bb
